Assay results as given in paper PMC7293203 (Chembiochem : a European journal of chemical biology, 2019).

Columns and labels:
[1] = target: tryptophan synthase α-subunit TrpA from Zea mays, wild type (Zea mays); assay: activity titration
[2] = target: the molecule itself; assay: native MS

B1: tryptophan synthase β-subunit TrpB1 from Zea mays (enzyme)
chain: GRFGGKYVPETLMHALTELENAFHALATDDEFQKELDGILKDYVGRESPLYFAERLTEHYKRADGTGPLIYLKREDLNHRGAHKINNAVAQALLAKRLGKQRIIAETGAGQHGVATATVCARFGLQCIIYMGAQDMERQALNVFRMKLLGAEVRAVHSGTATLKDATSEAIRDWVTNVETTHYILGSVAGPHPYPMMVREFHKVIGKETRRQAMHKWGGKPDVLVACVGGGSNAMGLFHEFVEDQDVRLIGVEAAGHGVDTDKHAATLTKGQVGVLHGSMSYLLQDDDGQVIEPHSISAGLDYPGVGPEHSFLKDIGRAEYDSVTDQEALDAFKRVSRLEGIIPALETSHALAYLEKLCPTLPDGVRVVLNCSGRGDKDVHTASKYLDV
Kd [1]: 500 nM | stoichiometry N [2]: 2
